What was measured:
[1] = molecular target: endoxylanase M6 from a rumen microorganism culture filtrate, Megazyme; experiment: cell-based or functional assay
[2] = molecular target: endoxylanase from Bacillus subtilis (family 11), NV Puratos (Bacillus subtilis) (UniProt P18429); experiment: cell-based or functional assay
[3] = molecular target: endoxylanase M4 from Aspergillus niger (family 11), Megazyme (Aspergillus niger); experiment: cell-based or functional assay
[4] = molecular target: endoxylanase M1 from Trichoderma viride (family 11), Megazyme (Trichoderma viride); experiment: cell-based or functional assay
[5] = molecular target: mixture of ‘TAXI’-like endoxylanase inhibitors obtained after the affinity purification step of example 3, immobilised on NHS-activated Sepharose 4 Fast Flow; experiment: affinity chromatography on immobilised ‘TAXI’-like endoxylanase inhibitors, activity by Xylazyme-AX method

endoxylanase M4 from Aspergillus niger (family 11), Megazyme (Aspergillus niger), sequence (P55329 28-211): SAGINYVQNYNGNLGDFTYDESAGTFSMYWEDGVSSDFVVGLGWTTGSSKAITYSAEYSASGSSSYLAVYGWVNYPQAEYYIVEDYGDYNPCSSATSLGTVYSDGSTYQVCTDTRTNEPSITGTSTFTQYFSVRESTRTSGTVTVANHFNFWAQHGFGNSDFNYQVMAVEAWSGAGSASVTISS
endoxylanase of A. niger, var. awamori (Quest International enzyme preparation), sequence (P55328 28-211): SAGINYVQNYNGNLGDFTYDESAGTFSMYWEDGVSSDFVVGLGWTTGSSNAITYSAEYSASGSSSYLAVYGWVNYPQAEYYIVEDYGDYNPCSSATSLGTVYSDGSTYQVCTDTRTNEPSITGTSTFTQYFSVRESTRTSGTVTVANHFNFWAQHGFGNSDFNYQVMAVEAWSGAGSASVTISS

Substance | maximum of inhibition of endoxylanase activity (Xylazyme-AX method) [1] | maximum of inhibition of endoxylanase activity (Xylazyme-AX method) [2] | maximum of inhibition of endoxylanase activity (Xylazyme-AX method) [4] | endoxylanase inhibition activity of periplasmic protein fraction (Xylazyme-AX method) [2] | endoxylanase inhibition activity of periplasmic protein fraction (Xylazyme-AX method) [3] | further results
HvXI (Hordeum vulgare L. endoxylanase inhibitor) | 15% | 92% | > 95% |  |  | level of inhibitor that reduces the endoxylanase activity with 50% (Xylazyme-AX method) [2]: 0.27 µg; level of inhibitor that reduces the endoxylanase activity with 50% (Xylazyme-AX method) [3]: 0.13 µg; maximum of inhibition of endoxylanase activity (Xylazyme-AX method) [3]: > 95%; level of inhibitor that reduces the endoxylanase activity with 50% (Xylazyme-AX method) [4]: 0.08 µg
MBP (maltose binding protein)-TAXI fusion protein expressed by the pMAL-p2X-TAXI plasmid |  |  |  | 88% | 99% | 
TAXI II (Triticum aestivum L. endoxylanase inhibitor II) | 8% | 77% | > 90% |  |  | maximum of inhibition as a function of inhibitor quantity [2]: 80%; quantity of inhibitor that reduces the endoxylanase activity with 50% (Xylazyme-AX method) [2]: 0.28 µg; quantity of inhibitor that reduces the endoxylanase activity with 50% (Xylazyme-AX method) [4]: 0.07 µg
endoxylanase of A. niger, var. awamori (Quest International enzyme preparation) |  |  |  |  |  | endoxylanase activity retained on the affinity column [5]: 94%
recombinant TAXI protein expressed by the pHOS31-TAXI plasmid |  |  |  | 81% | 96% | 
